No end group written: not given here.
T1: His-tagged P3028 (human, also: His-tag, terminus and sequence not given here)
T1 construct: in solution at 0.5 ug/mL over the peptide cards; found with anti-His-tag antibody and rabbit anti-mouse peroxidase (rampo); also called PGE73; not shown: His-tag
T1 peptide: VFDEFKPLVEEPQNLIK

B1: SEQ ID NO 3 (peptide)
peptide: RKLDTFFVKLSLFTER
B2: SEQ ID NO 29 (peptide)
peptide: KKLDTFFVKLSLATER
B3: SEQ ID NO 281 (peptide)
peptide: VKLDTFFVKLSLFTER
B4: SEQ ID NO 268 (peptide)
peptide: AKLDTFFVKLSLFTER
B5: SEQ ID NO 7 (peptide)
peptide: KKLDTAFVKLSLFTER
B6: SEQ ID NO 292 (peptide)
peptide: KKNDTFFVKLSLFTER
B7: SEQ ID NO 290 (peptide)
peptide: KKKDTFFVKLSLFTER
B8: SEQ ID NO 4 (peptide)
peptide: KKGDTFFVKLSLFTER
B9: SEQ ID NO 100 (peptide)
peptide: KKLDTFFVKLSLGTER
B10: SEQ ID NO 264 (peptide)
peptide: KKLDTFFKKLSLFTER
notes: also called P27; SCF 27
B11: SEQ ID NO 11 (peptide)
peptide: KKLDTFVVKLSLFTER
B12: SEQ ID NO 5 (peptide)
peptide: KKEDTFFVKLSLFTER
B13: SEQ ID NO 13 (peptide)
peptide: KKLDTFLVKLSLFTER
B14: SEQ ID NO 278 (peptide)
peptide: QKLDTFFVKLSLFTER
B15: SEQ ID NO 288 (peptide)
peptide: KKHDTFFVKLSLFTER
B16: SEQ ID NO 96 (peptide)
peptide: KKLDTFGVKLSLFTER
B17: SEQ ID NO 287 (peptide)
peptide: KKGDTFFVKLSLFTER
B18: SEQ ID NO 25 (peptide)
peptide: KKLDTFFVKLSLNTER
B19: SEQ ID NO 24 (peptide)
peptide: KKLDTFFVKLSLHTER
B20: SEQ ID NO 94 (peptide)
peptide: KKGDTFFVKLSLFTER
B21: SEQ ID NO 280 (peptide)
peptide: TKLDTFFVKLSLFTER
B22: SEQ ID NO 272 (peptide)
peptide: HKLDTFFVKLSLFTER
B23: SEQ ID NO 274 (peptide)
peptide: LKLDTFFVKLSLFTER
B24: SEQ ID NO 279 (peptide)
peptide: RKLDTFFVKLSLFTER
B25: SEQ ID NO 6 (peptide)
peptide: KKLDQFFVKLSLFTER
B26: SEQ ID NO 270 (peptide)
peptide: EKLDTFFVKLSLFTER
B27: SEQ ID NO 276 (peptide)
peptide: NKLDTFFVKLSLFTER
B28: SEQ ID NO 12 (peptide)
peptide: KKLDTFTVKLSLFTER
B29: SEQ ID NO 99 (peptide)
peptide: KKLDTFFVKLGLFTER
B30: SEQ ID NO 271 (peptide)
peptide: GKLDTFFVKLSLFTER
B31: SEQ ID NO 299 (peptide)
peptide: KKLETFFVKLSLFTER
B32: SEQ ID NO 28 (peptide)
peptide: KKLDTFFVKLSLGTER
B33: SEQ ID NO 294 (peptide)
peptide: KKRDTFFVKLSLFTER
B34: SEQ ID NO 285 (peptide)
peptide: KKEDTFFVKLSLFTER
B35: SEQ ID NO 275 (peptide)
peptide: MKLDTFFVKLSLFTER
B36: SEQ ID NO 273 (peptide)
peptide: IKLDTFFVKLSLFTER
B37: SEQ ID NO 31 (peptide)
peptide: KKLDTFFVKLSLFNER
B38: SEQ ID NO 277 (peptide)
peptide: PKLDTFFVKLSLFTER
B39: SEQ ID NO 282 (peptide)
peptide: KKADTFFVKLSLFTER
B40: SEQ ID NO 22 (peptide)
peptide: KKLDTFFVKLSLMTER
B41: SEQ ID NO 18 (peptide)
peptide: KKLDTFFVKLHLFTER
B42: SEQ ID NO 17 (peptide)
peptide: KKLDTFFVKLTLFTER
B43: SEQ ID NO 286 (peptide)
peptide: KKFDTFFVKLSLFTER
B44: SEQ ID NO 26 (peptide)
peptide: KKLDTFFVKLSLPTER
B45: SEQ ID NO 19 (peptide)
peptide: KKLDTFFVKLSQFTER
B46: SEQ ID NO 95 (peptide)
peptide: KKLDGFFVKLSLFTER
B47: SEQ ID NO 296 (peptide)
peptide: KKTDTFFVKLSLFTER
B48: SEQ ID NO 16 (peptide)
peptide: KKLDTFFVKLMLFTER
B49: SEQ ID NO 8 (peptide)
peptide: KKLDTVFVKLSLFTER
B50: SEQ ID NO 289 (peptide)
peptide: KKIDTFFVKLSLFTER
B51: SEQ ID NO 33 (peptide)
peptide: KKLDTFFVKLSLFRER
B52: SEQ ID NO 295 (peptide)
peptide: KKSDTFFVKLSLFTER
B53: SEQ ID NO 9 (peptide)
peptide: KKLDTFMVKLSLFTER
B54: SEQ ID NO 23 (peptide)
peptide: KKLDTFFVKLSLQTER
B55: SEQ ID NO 27 (peptide)
peptide: KKLDTFFVKLSLSTER
B56: SEQ ID NO 20 (peptide)
peptide: KKLDTFFVKLSVFTER
B57: SEQ ID NO 283 (peptide)
peptide: KKCDTFFVKLSLFTER
B58: SEQ ID NO 269 (peptide)
peptide: DKLDTFFVKLSLFTER
B59: SEQ ID NO 291 (peptide)
peptide: KKMDTFFVKLSLFTER
B60: SEQ ID NO 30 (peptide)
peptide: KKLDTFFVKLSLRTER
B61: SEQ ID NO 284 (peptide)
peptide: KKDDTFFVKLSLFTER
B62: SEQ ID NO 297 (peptide)
peptide: KKVDTFFVKLSLFTER
B63: SEQ ID NO 15 (peptide)
peptide: KKLDTFFVKLQLFTER
B64: SEQ ID NO 298 (peptide)
peptide: KKLATFFVKLSLFTER
B65: SEQ ID NO 300 (peptide)
peptide: KKLITFFVKLSLFTER
B66: SEQ ID NO 21 (peptide)
peptide: KKLDTFFVKLSMFTER
B67: SEQ ID NO 32 (peptide)
peptide: KKLDTFFVKLSLFPER
B68: SEQ ID NO 93 (peptide)
peptide: GKLDTFFVKLSLFTER
B69: SEQ ID NO 14 (peptide)
peptide: KKLDTFFVKVSLFTER
B70: SEQ ID NO 293 (peptide)
peptide: KKQDTFFVKLSLFTER
B71: SEQ ID NO 10 (peptide)
peptide: KKLDTFSVKLSLFTER

Target: T1, His-tagged P3028
Test: PEPSCAN chip ELISA, His-P3028 in solution;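 also: score is the raw OD at 405 nm from peroxidase colour with ABTS, imaged by CCD camera before and after staining, with wells showing air bubbles set to zero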

Compared with B1, B2 is higher in “RAMPO Score” value: 523 rampo score for the first, 525 rampo score for the second.

Going from B3 to B4, the “RAMPO Score” value rises from 442 rampo score to 466 rampo score.

Going from B5 to B6, the “RAMPO Score” value falls from 575 rampo score to 374 rampo score.

Compared with B7, B8 is higher in “RAMPO Score” value: 386 rampo score for the first, 563 rampo score for the second.

Compared with B9, B10 is lower in “RAMPO Score” value: 531 rampo score for the first, 253 rampo score for the second.

First: B11
Second: B12
The “RAMPO Score” value of the first is lower: 527 rampo score for the first, 528 rampo score for the second.

Going from B13 to B14, the “RAMPO Score” value falls from 517 rampo score to 455 rampo score.

First: B15
Second: B16
The “RAMPO Score” value of the first is higher: 477 rampo score for the first, 347 rampo score for the second.

Compared with B17, B18 is higher in “RAMPO Score” value: 563 rampo score for the first, 862 rampo score for the second.

Going from B19 to B20, the “RAMPO Score” value falls from 1050 rampo score to 563 rampo score.

Compared with B21, B22 is lower in “RAMPO Score” value: 493 rampo score for the first, 428 rampo score for the second.

First: B23
Second: B24
The “RAMPO Score” value of the first is lower: 449 rampo score for the first, 523 rampo score for the second.

Compared with B25, B26 is lower in “RAMPO Score” value: 535 rampo score for the first, 396 rampo score for the second.

First: B27
Second: B28
The “RAMPO Score” value of the first is lower: 445 rampo score for the first, 517 rampo score for the second.

Compared with B29, B30 is higher in “RAMPO Score” value: 288 rampo score for the first, 367 rampo score for the second.

Compared with B31, B32 is higher in “RAMPO Score” value: 417 rampo score for the first, 531 rampo score for the second.

First: B33
Second: B34
The “RAMPO Score” value of the first is lower: 370 rampo score for the first, 528 rampo score for the second.

Going from B35 to B36, the “RAMPO Score” value rises from 457 rampo score to 483 rampo score.

First: B37
Second: B38
The “RAMPO Score” value of the first is higher: 599 rampo score for the first, 387 rampo score for the second.

Going from B39 to B40, the “RAMPO Score” value rises from 427 rampo score to 1190 rampo score.

Going from B41 to B42, the “RAMPO Score” value falls from 535 rampo score to 520 rampo score.

Going from B43 to B44, the “RAMPO Score” value rises from 393 rampo score to 696 rampo score.

First: B45
Second: B46
The “RAMPO Score” value of the first is higher: 651 rampo score for the first, 386 rampo score for the second.

Going from B47 to B48, the “RAMPO Score” value rises from 451 rampo score to 744 rampo score.

First: B49
Second: B50
The “RAMPO Score” value of the first is higher: 547 rampo score for the first, 454 rampo score for the second.

First: B51
Second: B52
The “RAMPO Score” value of the first is lower: 264 rampo score for the first, 393 rampo score for the second.

Going from B53 to B54, the “RAMPO Score” value rises from 712 rampo score to 1140 rampo score.

Compared with B55, B56 is lower in “RAMPO Score” value: 635 rampo score for the first, 545 rampo score for the second.

First: B57
Second: B58
The “RAMPO Score” value of the first is higher: 432 rampo score for the first, 373 rampo score for the second.

Going from B59 to B60, the “RAMPO Score” value rises from 460 rampo score to 502 rampo score.

Compared with B61, B62 is lower in “RAMPO Score” value: 492 rampo score for the first, 377 rampo score for the second.

First: B63
Second: B64
The “RAMPO Score” value of the first is higher: 768 rampo score for the first, 494 rampo score for the second.

First: B65
Second: B66
The “RAMPO Score” value of the first is lower: 430 rampo score for the first, 499 rampo score for the second.

Going from B67 to B68, the “RAMPO Score” value falls from 551 rampo score to 367 rampo score.

Going from B69 to B70, the “RAMPO Score” value falls from 658 rampo score to 473 rampo score.

In the case of B71, the “RAMPO Score” value is reported as 700 rampo score.

Reference: patent US20170298096A1 (CANIMGUIDE THERAPEUTICS, published 2017)
